Key:
[1] = target: human poly(C)-binding protein 2 (PCBP2), full length, wild type (human) (UniProt Q15366); assay: AUC
[2] = target: human poly(C)-binding protein 2 (PCBP2), full length, wild type (human) (UniProt Q15366); assay: SAXS
[3] = target: T1, PCBP2 WT (Homo sapiens, UniProt Q15366 1-365); assay: EMSA; seen from 8-fold, strong at 20-fold molar excess; conditions: protein: recombinant; tags: N-terminal polyHis; single strand
[4] = target: T2, nsp1β WT;PCBP2 WT (PRRSV isolate SD01-08 (Betaarterivirus …, UniProt Q04561;Q15366 181-385;1-365, |)); assay: EMSA; supershift relative to PCBP2 alone; complex also purified by SEC; conditions: protein: recombinant;recombinant; tags: GST tag removed with HRV 3C protease;N-terminal polyHis; copies: 1;1; single strand
[5] = target: T3, nsp1β WT (PRRSV isolate SD01-08 (Betaarterivirus …, UniProt Q04561 181-385)); assay: EMSA; up to 20-fold molar excess; conditions: protein: recombinant; tags: GST tag removed with HRV 3C protease; single strand
T3 sequence: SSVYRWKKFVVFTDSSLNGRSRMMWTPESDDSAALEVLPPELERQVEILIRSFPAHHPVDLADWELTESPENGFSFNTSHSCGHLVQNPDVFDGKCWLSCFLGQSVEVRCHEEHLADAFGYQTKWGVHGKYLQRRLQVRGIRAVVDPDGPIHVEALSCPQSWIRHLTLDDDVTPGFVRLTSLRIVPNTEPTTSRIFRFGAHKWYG

[6] = target: T2, nsp1β WT;PCBP2 WT; assay: EMSA; large molar excess of both proteins; conditions: protein: recombinant;recombinant; tags: GST tag removed with HRV 3C protease;N-terminal polyHis; copies: 1;1; single strand
[7] = target: T2, nsp1β WT;PCBP2 WT; assay: EMSA; conditions: protein: recombinant;recombinant; tags: GST tag removed with HRV 3C protease;N-terminal polyHis; copies: 1;1; single strand
[8] = target: T1, PCBP2 WT; assay: EMSA; no appreciable binding at 28-fold molar excess; conditions: protein: recombinant; tags: N-terminal polyHis; single strand

T2 sequence (Q15366 whole entry, one chain of several): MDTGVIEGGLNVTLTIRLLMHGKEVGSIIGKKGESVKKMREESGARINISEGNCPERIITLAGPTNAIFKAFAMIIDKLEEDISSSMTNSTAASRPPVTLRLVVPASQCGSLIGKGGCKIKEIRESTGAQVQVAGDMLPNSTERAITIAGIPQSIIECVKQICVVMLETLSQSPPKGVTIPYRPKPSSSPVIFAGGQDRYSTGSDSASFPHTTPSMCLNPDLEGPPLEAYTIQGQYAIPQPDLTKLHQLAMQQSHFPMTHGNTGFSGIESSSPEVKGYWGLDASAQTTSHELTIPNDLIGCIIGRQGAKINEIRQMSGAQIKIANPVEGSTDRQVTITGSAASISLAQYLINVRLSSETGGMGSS
T1 sequence (Q15366 whole entry): as the sequence (Q15366 whole entry, one chain of several) above
Sequence of human poly(C)-binding protein 2 (PCBP2), full length, wild type (human) (Q15366 whole entry): as the sequence (Q15366 whole entry, one chain of several) above

Molecule: PRRSV nonstructural protein 1β (nsp1β), isolate SD01-08, wild type (natural protein)
- stoichiometry N [1]: 1
- stoichiometry N [2]: 1

B1: 34-nt PRRSV ssDNA (ssDNA)
DNA: GGGTTTTTGAAGTTTACTCCCATCTCCCAGCTTT
- binding result [3]: binds
- binding result [4]: binds
- binding result [5]: no binding

B2: 34-nt CC2 ssDNA (ssDNA)
DNA: GGGTTTTTGAAGTTTACTGAAATATGGCAGCTTT
- binding result [6]: no binding

B3: 34-nt PRRSV ssRNA (ssRNA)
RNA: GGGUUUUUGAAGUUUACUCCCAUCUCCCAGCUUU
- binding result [7]: binds
- binding result [8]: no binding

Source: publication PMC7939443
